B1: CPEB3 Ribozyme (parent)
chain: GGGGGCCACAGCAGAAGCGUUCACGUCGCGGCCCCUGUCAGAUUCUGGUGAAUCUGCGAAUUCUGCUGU

Variants of: B1
Test: self-cleavage, relative activity (ratio to wild type); higher = more cleavage; co-transcriptional

Variant | self-cleavage
G28C U43C | 0.141
G28C U43A | 0.109
G28C U43G | 0.255
C29A G68C | 0.914
C29A G68U | 0.903
G28C U69A | 0.18
G28C A60G | 0.168
G28C A60U | 0.19
G28A U36C | 0.128
G28A U36G | 0.133
G28U U61G | 0.221
G28U U61C | 0.11
G28C C33A | 0.115
G28C C33U | 0.165
C29G U36A | 0.157
C29G G65A | 0.286
C29G G65U | 0.182
C29G G65C | 0.232
C29G C66U | 0.418
C29G C66A | 0.312
C29G C35G | 0.301
C29G C35A | 0.234
C29G C35U | 0.307
C29G G47U | 0.612

Variant | self-cleavage
C29G G47A | 0.553
C29G G47C | 0.558
C29G C33A | 0.212
C29G C33G | 0.16
G28A G50U | 0.159
G28U A51C | 0.157
G28U A51G | 0.196
C29A C66U | 0.664
C29A C66G | 0.365
G28A G58U | 0.2
G28A G58A | 0.189
G28A G58C | 0.231
G28C C54U | 0.218
G28C C54G | 0.155
C29G A60C | 0.108
C29G A60G | 0.337
C29G A60U | 0.204
G28A U69A | 0.342
G28A U69G | 0.357
G28A U69C | 0.412
G28C G56U | 0.17
C29A C54A | 0.312
C29A C35G | 0.276
C29A C35U | 0.496

Variant | self-cleavage
G28C A51C | 0.119
G28C A51G | 0.247
G28C A51U | 0.165
G28U A59G | 0.23
G28U A59U | 0.16
G28U G48A | 0.255
G28U A42G | 0.112
G28U A42U | 0.149
G28U C34A | 0.181
C29G C32A | 0.196
C29G C32G | 0.18
G28U G68C | 0.243
C29A U43A | 0.32
G28C A59U | 0.189
G28C A59C | 0.16
G28C A59G | 0.132
G28A U53G | 0.203
G28A U53C | 0.154
C29A U44A | 0.55
G28A U46A | 0.184
G28A U46C | 0.192
G28A U46G | 0.146
G28U C45A | 0.189
G28U C45U | 0.168

Variant | self-cleavage
G28U C29U | 0.174
G28U C29A | 0.142
C29A C63G | 0.286
C29A C63A | 0.355
G28C U38C | 0.199
C29G C57A | 0.215
C29G C57G | 0.183
C29G C57U | 0.206
G28A G65C | 0.172
G28C U44A | 0.157
G28C U44C | 0.223
G28C G58C | 0.158
G28U U69G | 0.254
G28U A52U | 0.198
G28U A52C | 0.132
C29A U69C | 0.973
G28U C57U | 0.213
C29A G48C | 0.728
C29A G48U | 0.755
C29A G48A | 0.777
G28A U67G | 0.232
G28A U67C | 0.307
G28A U67A | 0.202
G28C G37U | 0.129

Variant | self-cleavage
G28C G37C | 0.186
G28C G37A | 0.117
G28C G48A | 0.195
G28C G48U | 0.202
C29A U61A | 0.543
G28U G47A | 0.173
G28U G47C | 0.205
G28U G47U | 0.151
C29G G37U | 0.185
G28C G41A | 0.201
G28C G41C | 0.178
G28C G41U | 0.152
G28A U61C | 0.137
G28A U61A | 0.193
C29A G58A | 0.435
C29G G31A | 0.146
C29G G31U | 0.131
C29G A59U | 0.203
C29G A59C | 0.272
C29A G65C | 0.392
C29A G65U | 0.25
C29A G65A | 0.371
C29A U55C | 0.38
C29A U55A | 0.273

Variant | self-cleavage
G28C U49C | 0.145
G28C U36C | 0.147
G28C U36G | 0.189
G28C U36A | 0.162
C29G G68A | 0.845
C29G G68C | 0.715
C29A U46G | 0.759
G28U C35A | 0.172
G28U C35G | 0.14
C29A G37U | 0.147
C29A G37C | 0.186
G28C C63U | 0.192
C29A C34G | 0.22
C29A C34U | 0.702
C29A C34A | 0.334
G28A U44A | 0.195
G28A U44C | 0.176
G28A U44G | 0.136
G28A U64A | 0.245
G28C U55C | 0.162
G28C U55G | 0.117
C29G C63U | 0.418
C29G C63A | 0.23
G28U U46A | 0.163

Variant | self-cleavage
G28U U46C | 0.19
G28U U46G | 0.187
C29G C54A | 0.259
G28U C63A | 0.189
G28U C63U | 0.187
G28U C63G | 0.254
C29A A51G | 0.706
C29A A51U | 0.646
G28A U55C | 0.214
C29A U62A | 0.409
C29A U62C | 0.644
G28U G41A | 0.166
G28U G41C | 0.163
G28U G41U | 0.155
C29A U49C | 0.809
C29A U49G | 0.737
G28C C35U | 0.178
G28C C35A | 0.176
C29A U38A | 0.365
C29A U38G | 0.218
C29A U38C | 0.385
G28C C66U | 0.211
G28C C66A | 0.163
